T1: HCoV-HKU1 S1 (HCoV-HKU1, UniProt Q5MQD0 13-760)
T1 construct: domain: S1
T1 sequence: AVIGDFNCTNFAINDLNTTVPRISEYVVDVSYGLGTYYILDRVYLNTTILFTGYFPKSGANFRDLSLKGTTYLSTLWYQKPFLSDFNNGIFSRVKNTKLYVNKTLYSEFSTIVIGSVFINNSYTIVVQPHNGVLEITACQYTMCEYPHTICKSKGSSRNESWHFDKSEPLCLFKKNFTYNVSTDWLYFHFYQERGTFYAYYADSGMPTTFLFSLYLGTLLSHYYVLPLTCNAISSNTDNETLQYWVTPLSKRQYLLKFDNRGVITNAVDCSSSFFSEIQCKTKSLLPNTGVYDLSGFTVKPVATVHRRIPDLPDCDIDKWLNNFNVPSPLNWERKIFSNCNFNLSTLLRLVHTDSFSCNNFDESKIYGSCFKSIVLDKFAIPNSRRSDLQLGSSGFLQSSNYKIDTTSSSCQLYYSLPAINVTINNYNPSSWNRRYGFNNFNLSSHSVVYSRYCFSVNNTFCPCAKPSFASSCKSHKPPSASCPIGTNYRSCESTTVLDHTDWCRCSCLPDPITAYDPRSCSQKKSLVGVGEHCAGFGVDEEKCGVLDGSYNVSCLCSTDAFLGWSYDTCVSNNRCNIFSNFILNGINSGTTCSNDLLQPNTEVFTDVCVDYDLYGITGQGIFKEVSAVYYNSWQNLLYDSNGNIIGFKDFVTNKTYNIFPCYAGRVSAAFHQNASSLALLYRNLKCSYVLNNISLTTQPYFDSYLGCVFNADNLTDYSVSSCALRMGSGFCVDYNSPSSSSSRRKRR


Legend:
[1] = target: SARS-CoV-2 S protein (spike protein) (SARS-CoV-2, UniProt P0DTC2 16-1213); assay: ELISA, S proteins on plate
HCoV-HKU1 S1 = target: T1, HCoV-HKU1 S1; assay: Octet binding specificity analysis (FIG. 10)

Binder | Binding ability [1] | binding result (HCoV-HKU1 S1)
No. 266 scFv-Fc antibody fragment (scFv, V domains shown) VH: EVQLVESGGGLVQPGGSLRLSCAASGFTVSSNYMTWVRQAPGKGLEWVSVIYSGGSTFYADSVKGRFTISRDNSKNTLYLQMNSLRAEDTAVYYCARDLVVYGMDVWGQGTTVTVSS VL: ELELTQPPSVSVAPGKTARITCGGNNIGSKSVHWYQQKPGQAPVLVIYYDSDRPSGIPERFSGSNSGNTATLTISRVEAGDEADYYCQVRDSSSDHPVFGGGTKVTVL | 0.8 relative to positive control antibody | –
No. 268 scFv-Fc antibody fragment (scFv, V domains shown) VH: QVQLVQSGGGVVQPGRSLRLSCAASGFTVSSNYMTWVRQAPGKGLEWVSVIYSGGSTFYADSVKGRFTISRDNSKNTLYLQMNSLRAEDTAVYYCARDLVVYGMDVWGQGTTVTVSS VL: ELELTQPPSVSGAPGQRVTISCTGSDSNIGAGYDVHWYQQLPGTAPKLLIYNNNNRPSGVPDRFSGSKSGTSASLAITGLQAEDEADYFCQSSDSGLTGWVFGGGTKLTVL | 1.09 relative to positive control antibody | –
No. 276 scFv-Fc antibody fragment (scFv, V domains shown) VH: QVQLVQSGGGLVQPGGSLRLSCAASGFTVSSNYMTWVRQAPGKGLEWVSVIYSGGSTFYADSVKGRFTISRDNSKNTLYLQMNSLRAEDTAVYYCARDLVVYGMDVWGQGTTVTVSS VL: ELELTQPPSASGAPGQRVTISCSGSSSNIGGSDVGWYQHLPGMAPRLLIYKSNQRPSGVPDRFSASKSGTSASLAISGLQSEDEGDYYCATWDDRLNWVFGGGTKVTVL | 1 relative to positive control antibody | –
No. 139 antibody (full IgG) (antibody, V domains shown, also called CT-P59) VH: QITLKESGPTLVKPTQTLTLTCSFSGFSLSTSGVGVGWIRQPPGKALEWLALIDWDDNKYHTTSLKTRLTISKDTSKNQVVLTMTNMDPVDTATYYCARIPGFLRYRNRYYYYGMDVWGQGTTVTVSS VL: ELVLTQPPSVSAAPGQKVTISCSGSSSNIGNNYVSWYQQLPGTAPKLLIYDNNKRPSGIPDRFSGSKSGTSATLGITGLQTGDEADYYCGTWDSSLSAGVFGGGTELTVL | – | no binding
